Consider two molecules from patent US20190016816A1 (APTEVO RESEARCH AND DEVELOPMENT, published 2019).

Experiment [1] addresses T1, recombinant human CD137 extracellular domain (ECD) (human).
T1 construct: Monomeric, made in HEK-293; also called Hu CD137; human 4-1BB ECD
Briefly: SPR (Biacore T200, 25 C), bispecific captured on anti-human IgG, monomeric ECD injected, 1:1 fit. How it is done:
(§1) Goat anti-human IgG F(ab′)2 fragment (Jackson ImmunoResearch) at 20 μg/mL in 10 mM sodium acetate (pH 4.5) was immobilized at a density of 2000 response units (RU) onto the flow cell of a CM5 research-grade sensor chip (GE) by standard amine coupling chemistry. Each bispecific variant at 200 nM in HBS-EP+ buffer was captured in the flow cell with the immobilized anti-human IgG at a flow rate of 50 μL/min for 60 sec to reach ˜500 RU response, leaving one flow cell surface unmodified as the reference. Following a 30 sec stabilization period, four different concentrations of each ECD (0, 20, 60, and 180 nM) were injected at 50 μL/min for either 120 sec followed by a 240 sec dissociation period (for 5T4) or 90 sec followed by a 180 sec dissociation period (for 4-1BB). Regeneration was achieved by duplicate injections of 10 mM glycine (pH 1.5) at a flow rate of 50 μL/min for 30 sec followed by HBS-EP+ buffer stabilization for 1 min.
(§2) Sensorgrams obtained from kinetic SPR measurements were analyzed by the double subtraction method. The signal from the reference flow cell was subtracted from the analyte binding response obtained from flow cells with immobilized or captured ligands. Buffer reference responses were then averaged from multiple injections. The averaged buffer reference responses were then subtracted from analyte binding responses, and the final double-referenced data were analyzed with Biacore T200 Evaluation software (2.0, GE), globally fitting data to derive kinetic parameters. All sensorgrams were fitted using a simple one-to-one binding model.
A general note: Surface plasmon resonance follows binding to a sensor surface in real time, without labels.

The target of experiment [2] is T2, recombinant human 5T4 extracellular domain (ECD) (human).
T2 construct: Monomeric, made in HEK-293; also called Hu 5T4; monomeric 5T4 ectodomain
T2 chain: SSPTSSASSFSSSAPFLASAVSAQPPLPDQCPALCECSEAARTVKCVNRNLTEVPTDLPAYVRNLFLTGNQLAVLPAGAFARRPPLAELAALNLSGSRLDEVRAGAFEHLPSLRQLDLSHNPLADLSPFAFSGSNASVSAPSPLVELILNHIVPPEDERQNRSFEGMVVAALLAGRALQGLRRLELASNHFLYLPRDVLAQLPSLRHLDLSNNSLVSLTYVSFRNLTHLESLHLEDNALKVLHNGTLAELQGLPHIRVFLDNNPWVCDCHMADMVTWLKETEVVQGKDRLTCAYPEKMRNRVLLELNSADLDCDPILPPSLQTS
Described as above. How it is done:
as §1, §2

In a further experiment the target is T3, human 5T4 on cells (human, UniProt Q13641 32-420).
T3 construct: also called TPBG; hu5T4
T3 sequence: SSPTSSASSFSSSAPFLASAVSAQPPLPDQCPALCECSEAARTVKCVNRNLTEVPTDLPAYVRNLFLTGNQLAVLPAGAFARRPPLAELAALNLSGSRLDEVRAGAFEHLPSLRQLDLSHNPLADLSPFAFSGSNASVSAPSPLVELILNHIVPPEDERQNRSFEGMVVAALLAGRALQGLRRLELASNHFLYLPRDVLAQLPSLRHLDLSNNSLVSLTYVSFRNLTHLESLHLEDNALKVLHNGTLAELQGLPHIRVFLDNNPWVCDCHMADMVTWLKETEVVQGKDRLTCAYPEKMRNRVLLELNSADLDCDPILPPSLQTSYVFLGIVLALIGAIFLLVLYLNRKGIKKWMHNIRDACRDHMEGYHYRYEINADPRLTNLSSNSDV
Nature of the experiment: flow cytometry, murine CT26 cells expressing human 5T4, labelled anti-human IgG secondary, MFI (mean). (In general: A flow cytometer gives signals particle by particle.)

The target in experiment [3] is T4, human CD137 on cells (human, UniProt Q07011 24-255). Briefly: cell-based or functional assay.
T4 sequence (Q07011 24-255 limits assumed): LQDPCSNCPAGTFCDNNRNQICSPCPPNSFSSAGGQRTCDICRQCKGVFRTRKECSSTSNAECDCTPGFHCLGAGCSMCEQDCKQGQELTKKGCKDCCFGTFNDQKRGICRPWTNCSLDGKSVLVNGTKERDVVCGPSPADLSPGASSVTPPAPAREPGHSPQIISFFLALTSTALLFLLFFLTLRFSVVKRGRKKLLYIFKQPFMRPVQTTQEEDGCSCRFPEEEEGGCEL
Experiment [4] has as its target T4, human CD137 on cells. Nature of the experiment: flow cytometry, CHO-K1/human CD137 cells, PE anti-human IgG Fc secondary, MFI (mean). As to the method:
Binding studies on CHO-K1 cells lines expressing CD137 were performed by standard flow cytometry-based staining procedures. CHO-K1 cells (generated by Alligator) were transfected with human or cynomolgus macaque CD137. A typical experiment would label approximately 100,000 cells per well, in 96-well plates, with a range of 100 nM to 0.05 nM binding molecule in 50 μL of saline buffer with 2% BSA and 2 mM EDTA, for 30 min on ice, followed by washes and incubation with PE-labeled secondary antibody, goat anti-human IgG Fcγ ([…]), for 20 minutes on ice. Signal from bound molecules was detected using a LSR-II™ or a Symphony A3 flow cytometer (BD Biosciences) and analyzed by FlowJo flow cytometry analysis software. […] Nonlinear regression analysis to determine EC₅₀ values was performed in GraphPad Prism 6® graphing and statistics software.

Some results are limits rather than exact numbers.

A word on the Kd: it is the constant that tells how readily two partners part at equilibrium. Usually koff stands for the rate constant with which the complex falls apart. For orientation: kon means the second-order rate constant of association. In general, EC50 refers to the midpoint of the concentration-response curve.

T1 sequence (chain, as listed by the source limits assumed): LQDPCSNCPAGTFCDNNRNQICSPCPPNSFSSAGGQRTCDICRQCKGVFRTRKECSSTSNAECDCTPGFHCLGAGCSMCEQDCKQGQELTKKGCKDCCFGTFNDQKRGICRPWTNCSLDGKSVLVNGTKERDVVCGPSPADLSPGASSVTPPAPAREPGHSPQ

B1: ALG.APV-210 (bispecific antibody)
chain: EVQLLESGGGLVQPGGSLRLSCAASGFTFSHGSMYWVRQAPGKGLEWVSSISSGSGSTYYADSVKGRFTISHDNSKNTLYLQMNSLRAEDTAVYYCARSSYYGSYYSIDYWGQGTLVTVSSGGGGSGGGGSGGGGSGGGGSDIQMTQSPSSLSASVGDRVTITCRASQSISSYLNWYQQKPGKAPKLLIYAASSLQSGVPSRFSGSGSGTDFTLTISSLQPEDFATYYCQQYYDNLPTFGQGTKLEIKEPKSSDKTHTCPPCPAPEAAGAPSVFLFPPKPKDTLMISRTPEVTCVVVDVSHEDPEVKFNWYVDGVEVHNAKTKPREEQYNSTYRVVSVLTVLHQDWLNGKEYKCAVSNKALPAPIEKTISKAKGQPREPQVYTLPPSRDELTKNQVSLTCLVKGFYPSDIAVEWESNGQPENNYKTTPPVLDSDGSFFLYSKLTVDKSRWQQGNVFSCSVMHEALHNHYTQKSLSLSPGSGGGGSGGGGSGGGGSPSEVQLLESGGGLVQPGGSLRLSCAASGFTFSSYAMSWVRQAPGKCLEWVSAISGSGGSTYYADSVKGRFTISRDNSKNTLYLQMNSLRAEDTAVYYCARYYGGYYSAWMDYWGQGTLVTVSSGGGGSGGGGSGGGGSGGGGSDIQMTQSPSSLSASVGDRVTITCRASQSISSFLNWYQQKPGKAPKLLIYAASSLQSGVPSRFSGSGSGTDFTLTISSLQPEDSATYYCQQTYGYLHTFGCGTKLEIKR
notes: Optimized ADAPTIR scFv-Fc-scFv homodimer with stabilizing disulfide in the 1210 scFv; also called 5T4-CD137 bispecific antibody
Consider B1, for which, in experiment [1], the Kd is 59 nM, the koff is 0.033 s⁻¹ and the kon amounted to 550000 M⁻¹ s⁻¹. Also, in experiment [2], the dissociation constant (Kd) came to 79 nM, the koff was determined as 0.0012 s⁻¹ and the kon was found to be 15000 M⁻¹ s⁻¹. Moreover, in the experiment with human 5T4 on cells, the EC50 was determined as 2.7 nM and the “Maximum MFI” value was 1730. In addition, the “CD137 reporter assay with HCC1143 cells, EC50 against ALG.APV-004” value with human CD137 on cells [3] turned out to be 10 fold lower EC50. For the same molecule, in the experiment with human CD137 on cells [4], the midpoint of the response, the EC50, lay at 0.56 nM and the “Maximum MFI” value turned out to be 8970.

B2: ALG.APV-187 (bispecific antibody)
chain: EVQLLESGGGLVQPGGSLRLSCAASGFTFSHGSMYWVRQAPGKGLEWVSSISSGSGSTYYADSVKGRFTISHDNSKNTLYLQMNSLRAEDTAVYYCARSSYYGSYYSIDYWGQGTLVTVSSGGGGSGGGGSGGGGSGGGGSDIQMTQSPSSLSASVGDRVTITCRASQSISSYLNWYQQKPGKAPKLLIYAASSLQSGVPSRFSGSGSGTDFTLTISSLQPEDFATYYCQQYYDNLPTFGQGTKLEIKSSEPKSSDKTHTCPPCPAPEAAGAPSVFLFPPKPKDTLMISRTPEVTCVVVDVSHEDPEVKFNWYVDGVEVHNAKTKPREEQYNSTYRVVSVLTVLHQDWLNGKEYKCAVSNKALPAPIEKTISKAKGQPREPQVYTLPPSRDELTKNQVSLTCLVKGFYPSDIAVEWESNGQPENNYKTTPPVLDSDGSFFLYSKLTVDKSRWQQGNVFSCSVMHEALHNHYTQKSLSLSPGSGGGGSGGGGSGGGGSPSEVQLLESGGGLVQPGGSLRLSCAASGFTFSSYAMSWVRQAPGKCLEWVSAISGSGGSTYYADSVKGRFTISRDNSKNTLYLQMNSLRAEDTAVYYCARYYGGYYSAWMDYWGQGTLVTVSSGGGGSGGGGSGGGGSGGGGSDIQMTQSPSSLSASVGDRVTITCRASQSISSFLNWYQQKPGKAPKLLIYAASSLQSGVPSRFSGSGSGTDFTLTISSLQPEDSATYYCQQTYGYLHTFGCGTKLEIKR
notes: Optimized ADAPTIR scFv-Fc-scFv homodimer with stabilizing disulfide in the 1210 scFv
Turning to B2, in experiment [1], the Kd amounted to 73 nM, the koff came to 0.027 s⁻¹ and the kon is 370000 M⁻¹ s⁻¹. In experiment [2], the Kd was found to be 35 nM, the koff was determined as 0.00072 s⁻¹ and the kon is 21000 M⁻¹ s⁻¹. In the experiment with human 5T4 on cells, it took 2.2 nM to reach a half-maximal effect (EC50) and the “Maximum MFI” value came to 1730. Also, in the experiment with human CD137 on cells [3], the “CD137 reporter assay with HCC1143 cells, EC50 against ALG.APV-004” value stood at 10 fold lower EC50; the “CD137 reporter assay with HCC1143 cells, EC50 against ALG.APV-006 and ALG.APV-004” value is not above 6 fold lower EC50. In the experiment with human CD137 on cells [4], the EC50 was found to be 0.41 nM and the “Maximum MFI” value is 8720.
